B1: Speckle-type POZ protein (Homo sapiens), O43791 (parent)
chain: MSRVPSPPPPAEMSSGPVAESWCYTQIKVVKFSYMWTINNFSFCREEMGEVIKSSTFSSGANDKLKWCLRVNPKGLDEESKDYLSLYLLLVSCPKSEVRAKFKFSILNAKGEETKAMESQRAYRFVQGKDWGFKKFIRRDFLLDEANGLLPDDKLTLFCEVSVVQDSVNISGQNTMNMVKVPECRLADELGGLWENSRFTDCCLCVAGQEFQAHKAILAARSPVFSAMFEHEMEESKKNRVEINDVEPEVFKEMMCFIYTGKAPNLDKMADDLLAAADKYALERLKVMCEDALCSNLSVENAAEILILADLHSADQLKTQAVDFINYHASDVLETSGWKSMVVSHPHLVAEAYRSLASAQCPFLGPPRKRLKQS
partner: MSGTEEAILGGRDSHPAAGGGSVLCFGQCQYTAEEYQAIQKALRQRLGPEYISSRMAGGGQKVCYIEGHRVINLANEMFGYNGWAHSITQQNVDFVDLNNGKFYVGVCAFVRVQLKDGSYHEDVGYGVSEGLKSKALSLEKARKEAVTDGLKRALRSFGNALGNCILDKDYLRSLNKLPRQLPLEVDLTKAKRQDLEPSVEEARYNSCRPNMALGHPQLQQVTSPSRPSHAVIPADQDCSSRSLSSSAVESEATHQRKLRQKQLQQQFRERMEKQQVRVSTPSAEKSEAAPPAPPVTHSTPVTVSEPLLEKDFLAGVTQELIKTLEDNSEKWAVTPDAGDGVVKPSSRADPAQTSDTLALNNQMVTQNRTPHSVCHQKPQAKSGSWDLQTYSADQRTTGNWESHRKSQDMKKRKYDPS
B2: Speckle-type POZ protein (Homo sapiens), O43791 (parent)
chain: B1 chain
partner: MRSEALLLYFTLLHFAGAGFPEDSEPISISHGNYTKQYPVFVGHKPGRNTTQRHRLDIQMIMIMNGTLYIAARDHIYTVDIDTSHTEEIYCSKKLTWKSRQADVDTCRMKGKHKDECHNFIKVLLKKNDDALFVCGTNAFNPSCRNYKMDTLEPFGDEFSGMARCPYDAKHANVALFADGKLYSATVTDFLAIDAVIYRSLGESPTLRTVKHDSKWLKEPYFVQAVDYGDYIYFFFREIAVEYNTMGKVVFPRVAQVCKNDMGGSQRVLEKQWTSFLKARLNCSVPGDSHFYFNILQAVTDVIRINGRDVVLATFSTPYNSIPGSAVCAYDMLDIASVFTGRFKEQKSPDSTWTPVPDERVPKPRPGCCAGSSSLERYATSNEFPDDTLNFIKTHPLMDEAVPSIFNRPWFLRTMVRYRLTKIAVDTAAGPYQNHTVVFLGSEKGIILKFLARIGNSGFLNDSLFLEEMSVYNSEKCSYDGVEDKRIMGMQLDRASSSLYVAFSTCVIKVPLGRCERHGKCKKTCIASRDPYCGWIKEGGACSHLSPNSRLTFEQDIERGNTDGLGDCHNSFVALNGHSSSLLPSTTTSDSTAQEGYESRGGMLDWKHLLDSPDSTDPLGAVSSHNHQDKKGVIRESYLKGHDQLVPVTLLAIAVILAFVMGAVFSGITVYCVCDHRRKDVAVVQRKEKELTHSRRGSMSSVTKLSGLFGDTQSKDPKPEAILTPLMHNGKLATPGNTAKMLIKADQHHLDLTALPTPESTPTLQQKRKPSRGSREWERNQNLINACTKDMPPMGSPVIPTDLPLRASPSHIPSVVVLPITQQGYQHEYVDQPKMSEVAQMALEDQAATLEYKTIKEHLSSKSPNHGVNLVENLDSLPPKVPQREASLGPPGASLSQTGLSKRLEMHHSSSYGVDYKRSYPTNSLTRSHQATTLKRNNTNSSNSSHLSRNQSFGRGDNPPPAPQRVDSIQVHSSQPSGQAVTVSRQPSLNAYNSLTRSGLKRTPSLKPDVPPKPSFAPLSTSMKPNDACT
B3: Speckle-type POZ protein (Homo sapiens), O43791 (parent)
chain: B1 chain
partner: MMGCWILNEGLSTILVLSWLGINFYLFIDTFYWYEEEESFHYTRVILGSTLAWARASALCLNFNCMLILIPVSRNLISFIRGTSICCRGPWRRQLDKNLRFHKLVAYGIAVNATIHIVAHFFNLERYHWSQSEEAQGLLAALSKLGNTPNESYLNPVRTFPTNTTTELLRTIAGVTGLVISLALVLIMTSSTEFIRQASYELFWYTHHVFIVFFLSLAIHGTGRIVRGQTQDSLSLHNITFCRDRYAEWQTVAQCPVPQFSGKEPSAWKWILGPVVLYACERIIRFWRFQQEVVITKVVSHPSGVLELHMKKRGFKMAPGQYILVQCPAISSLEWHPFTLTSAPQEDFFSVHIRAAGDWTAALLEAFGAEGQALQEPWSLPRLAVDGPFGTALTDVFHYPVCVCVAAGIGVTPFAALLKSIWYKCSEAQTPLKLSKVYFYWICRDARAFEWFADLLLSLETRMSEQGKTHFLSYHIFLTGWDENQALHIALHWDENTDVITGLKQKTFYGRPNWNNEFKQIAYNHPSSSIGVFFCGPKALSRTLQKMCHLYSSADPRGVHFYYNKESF
B4: Speckle-type POZ protein (Homo sapiens), O43791 (parent)
chain: B1 chain
partner: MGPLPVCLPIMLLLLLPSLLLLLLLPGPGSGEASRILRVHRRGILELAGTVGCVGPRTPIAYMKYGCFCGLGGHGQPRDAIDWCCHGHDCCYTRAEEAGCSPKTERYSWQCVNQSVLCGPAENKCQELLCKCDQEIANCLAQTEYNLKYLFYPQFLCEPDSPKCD
B5: Speckle-type POZ protein (Homo sapiens), O43791 (parent)
chain: B1 chain
partner: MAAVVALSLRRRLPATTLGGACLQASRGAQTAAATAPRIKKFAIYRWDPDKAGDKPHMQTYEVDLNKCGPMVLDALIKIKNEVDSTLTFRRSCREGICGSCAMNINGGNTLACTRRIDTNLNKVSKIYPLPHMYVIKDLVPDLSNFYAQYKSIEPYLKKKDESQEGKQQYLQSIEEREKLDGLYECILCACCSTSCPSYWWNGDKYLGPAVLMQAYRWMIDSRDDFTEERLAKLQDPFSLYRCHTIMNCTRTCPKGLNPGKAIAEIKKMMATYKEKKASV
B6: Speckle-type POZ protein (Homo sapiens), O43791 (parent)
chain: B1 chain
partner: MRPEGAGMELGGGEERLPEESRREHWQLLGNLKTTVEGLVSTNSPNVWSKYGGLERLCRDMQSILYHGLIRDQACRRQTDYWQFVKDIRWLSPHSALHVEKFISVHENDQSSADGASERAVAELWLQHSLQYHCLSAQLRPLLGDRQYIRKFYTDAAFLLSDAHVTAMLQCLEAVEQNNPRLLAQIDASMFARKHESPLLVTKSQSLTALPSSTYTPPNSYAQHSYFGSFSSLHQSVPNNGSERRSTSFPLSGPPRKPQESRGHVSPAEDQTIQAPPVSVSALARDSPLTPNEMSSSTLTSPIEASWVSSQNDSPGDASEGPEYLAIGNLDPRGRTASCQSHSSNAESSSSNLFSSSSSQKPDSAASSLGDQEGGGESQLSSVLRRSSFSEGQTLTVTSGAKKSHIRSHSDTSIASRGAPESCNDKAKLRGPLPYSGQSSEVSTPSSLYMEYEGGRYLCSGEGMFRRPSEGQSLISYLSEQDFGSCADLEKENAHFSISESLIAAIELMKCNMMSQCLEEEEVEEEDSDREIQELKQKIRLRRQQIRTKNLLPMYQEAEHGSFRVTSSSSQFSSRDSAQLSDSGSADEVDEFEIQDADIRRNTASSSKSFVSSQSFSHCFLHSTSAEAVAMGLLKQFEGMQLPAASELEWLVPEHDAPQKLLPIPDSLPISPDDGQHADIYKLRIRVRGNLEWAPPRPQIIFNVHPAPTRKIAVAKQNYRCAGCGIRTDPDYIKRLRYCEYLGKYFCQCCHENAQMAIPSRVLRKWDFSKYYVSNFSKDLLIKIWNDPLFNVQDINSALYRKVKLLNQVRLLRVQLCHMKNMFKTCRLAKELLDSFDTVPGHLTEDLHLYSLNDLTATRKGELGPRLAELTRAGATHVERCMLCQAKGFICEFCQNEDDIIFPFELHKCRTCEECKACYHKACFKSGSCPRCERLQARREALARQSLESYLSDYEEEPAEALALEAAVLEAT

Variants of: B1
Conditions: with rad52_human RAD52, P43351
With Y87C the “effect of a mutation on the interaction” value was “with no effect”.

Variants of: B1
Conditions: with rad52_human RAD52, P43351
Remark: another data set of the same source
In the case of F133V, the “effect of a mutation on the interaction” value is reported as “with no effect”.

Variants of: B1
Conditions: with rad52_human RAD52, P43351
Remark: another data set of the same source
For F133L, the “effect of a mutation on the interaction” value was “with no effect”.

Variants of: B1
Conditions: with rad52_human RAD52, P43351
Remark: another data set of the same source
With F102C the “effect of a mutation on the interaction” value was “with no effect”.

Variants of: B2
Conditions: with sem6a_human SEMA6A
With F102C the “effect of a mutation on the interaction” value was “with no effect”.

Variants of: B2
Conditions: with sem6a_human SEMA6A
Remark: another data set of the same source
With Y87C the “effect of a mutation on the interaction” value was “with no effect”.

Variants of: B2
Conditions: with sem6a_human SEMA6A
Remark: another data set of the same source
With F133L the “effect of a mutation on the interaction” value was “with no effect”.

Variants of: B2
Conditions: with sem6a_human SEMA6A
Remark: another data set of the same source
F133V was tested, and the “effect of a mutation on the interaction” value was “with no effect”.

Variants of: B3
Conditions: with nox3_human NOX3, Q9HBY0
For F102C, the “effect of a mutation on the interaction” value was “with no effect”.

Variants of: B3
Conditions: with nox3_human NOX3, Q9HBY0
Remark: another data set of the same source
For F133V, the “effect of a mutation on the interaction” value was “with no effect”.

Variants of: B3
Conditions: with nox3_human NOX3, Q9HBY0
Remark: another data set of the same source
For F133L, the “effect of a mutation on the interaction” value was “with no effect”.

Variants of: B3
Conditions: with nox3_human NOX3, Q9HBY0
Remark: another data set of the same source
Y87C was tested, and the “effect of a mutation on the interaction” value was “with no effect”.

Variants of: B4
Conditions: with pa2gx_human PLA2G10, O15496
F102C was tested, and the “effect of a mutation on the interaction” value was “with no effect”.

Variants of: B4
Conditions: with pa2gx_human PLA2G10, O15496
Remark: another data set of the same source
Y87C was tested, and the “effect of a mutation on the interaction” value was “with no effect”.

Variants of: B4
Conditions: with pa2gx_human PLA2G10, O15496
Remark: another data set of the same source
F133V was tested, and the “effect of a mutation on the interaction” value was “with no effect”.

Variants of: B4
Conditions: with pa2gx_human PLA2G10, O15496
Remark: another data set of the same source
With F133L the “effect of a mutation on the interaction” value was “with no effect”.

Variants of: B5
Conditions: with sdhb_human SDHB
F102C was tested, and the “effect of a mutation on the interaction” value was “with no effect”.

Variants of: B5
Conditions: with sdhb_human SDHB
Remark: another data set of the same source
In the case of F133V, the “effect of a mutation on the interaction” value is reported as “with no effect”.

Variants of: B5
Conditions: with sdhb_human SDHB
Remark: another data set of the same source
With F133L the “effect of a mutation on the interaction” value was “with no effect”.

Variants of: B5
Conditions: with sdhb_human SDHB
Remark: another data set of the same source
For Y87C, the “effect of a mutation on the interaction” value was “with no effect”.

Variants of: B6
Conditions: with rubic_human RUBCN
In the case of F102C, the “effect of a mutation on the interaction” value is reported as “with no effect”.

Variants of: B6
Conditions: with rubic_human RUBCN
Remark: another data set of the same source
With Y87C the “effect of a mutation on the interaction” value was “with no effect”.

Variants of: B6
Conditions: with rubic_human RUBCN
Remark: another data set of the same source
With F133V the “effect of a mutation on the interaction” value was “with no effect”.

Variants of: B6
Conditions: with rubic_human RUBCN
Remark: another data set of the same source
With F133L the “effect of a mutation on the interaction” value was “with no effect”.
